One series has as its target T1, recombinant mMCP-6-FLAG (Mus musculus, UniProt P21845).
T1 construct: endogenous pro-peptide followed by EK-susceptible peptide (Asp-Asp-Asp-Asp-Lys) (N, cleaved yes); made in house; host or cells: baculovirus; Spodoptera frugiperda 9 for virus, Trichoplusia ni High Five insect cells for expression
T1 sequence (P21845 32-276): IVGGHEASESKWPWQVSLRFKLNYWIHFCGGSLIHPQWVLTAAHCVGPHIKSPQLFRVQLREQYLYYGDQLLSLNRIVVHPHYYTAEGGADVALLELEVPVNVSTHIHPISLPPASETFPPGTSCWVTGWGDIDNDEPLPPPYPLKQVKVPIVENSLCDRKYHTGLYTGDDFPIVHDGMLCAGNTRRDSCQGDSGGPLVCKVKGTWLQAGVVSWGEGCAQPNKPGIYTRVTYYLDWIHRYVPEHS
Put plainly: spectrophotometric cleavage of trypsin-susceptible p-nitroanilide substrates by EK-activated mMCP-6-FLAG. In kind it is biochemical. The protocol: Purified pro-EK-mMCP-6-FLAG (~100 μg in 100 μl) was separately mixed with 100 μl of a pH 5.2 buffer consisting of 50 mM sodium acetate and 5 mM calcium chloride. One μl of a solution containing 550 U of calf intestine EK (Biozyme) was added to each, and the mixture was incubated at 37° C. generally for 3 h to allow EK to activate the zymogen in the absence of heparin. The spectrophotometric method of Svendsen and coworkers (Throm. Res. 1972, 1:267-278) was used to determine whether or not mMCP-6-FLAG is enzymatically active. Generally, 1-μl samples of each activation reaction were placed in 1 ml of a pH 7.4 buffer containing 25 mM sodium phosphate, 1 mM EDTA, and 50 μg of tosyl-Gly-Pro-Lys-p-nitroanilide. The change in optical density at 405 nm was then determined after a 3-min incubation at room temperature. The ability of recombinant mMCP-6-FLAG to cleave the trypsin-susceptible substrates tosyl-Gly-Pro-Arg-p-nitroanilide, benzoyl-Ile-Glu-Gly-Arg-p-nitroanilide, benzoyl-Pro-Phe-Arg-p-nitroanilide, and acetyl-Ile-Glu-Ala-Arg-p-nitroanilide were also evaluated.

Another series has as its target T2, recombinant mMCP-7-FLAG (Mus musculus, UniProt Q02844).
T2 construct: made in house; host or cells: insect cells (described in earlier work of the same group)
Put plainly: cleavage of p-nitroanilide substrate by mMCP-7-FLAG. In kind it is biochemical. The settings on record: in vitro.

Another series relates to neutrophils. Put plainly: emigration of neutrophils into the peritoneal cavity after injection of tryptase. Format: in vivo, BALB/c mice. The source says: mMCP-6-FLAG-Induced Emigration of Neutrophils Into the Peritoneal Cavity and mMCP-6-Induced Growth of Fibroblasts and their Adhesion to Fibronectin--This experiment is discussed below.
mMCP-6-Induced Emigration of Neutrophils Into the Peritoneal Cavity of BALB/c Mice--The mast cells that reside in the peritoneal cavity of BALB/c mice express mMCP-6 but not mMCP-7 (Stevens et al., Proc. Natl. Acad. Sci. USA 1994, 91:128-132). […] Thus, the direct or indirect chemotaxis activity of mMCP-6 is relatively neutrophil specific. It also appears that tryptase treatment results in a relatively persistent recruitment of neutrophils into the peritoneal cavity.

Series [1] deals with Swiss albino mouse skin-derived 3T3 fibroblasts. Put plainly: adhesion and growth of fibroblasts on fibronectin-coated culture dishes. In kind it is cell-based. The note with it: for adhesion/shape of fibroblasts on fibronectin-coated dishes: 15 min at 37° C. The protocol: However, these cells will become less adhesive and divide in vitro when they are trypsin treated. To determine if mMCP-6-FLAG could specifically alter the growth and/or adhesion of these cells, the fibroblasts were allowed to attach to replicate fibronectin-coated culture dishes and then were incubated for 15 min at 37° C. with buffer alone or buffer containing either pro-EK-mMCP-6-FLAG, mMCP-6-FLAG, mMCP-7-FLAG, or trypsin. […] SDS-PAGE/immunoblot analysis of the supernatants from the result cultures confirmed that fibronectin was degraded in the mMCP-6-FLAG-treated cultures but not in the pro-EK-mMCP-6-FLAG or mMCP-7-FLAG treated cultures.

Another series concerns mouse fibronectin. Put plainly: in vitro degradation of fibronectin by recombinant tryptases. Format: biochemical. The settings on record: for cleavage of fibronectin in vitro: SDS-PAGE of digests. As to the method: In Vitro Degradation of Fibronectin by Recombinant mMCP-6-FLAG--Five μg of purified mouse fibronectin (Alexis) was suspended in 1 mM EDTA and 25 mM sodium phosphate, pH 7.4, containing 0.01 U EK, 0.5 μg recombinant pro-EK-mMCP-6-FLAG, 0.5 μg recombinant mMCP-6-FLAG (activated with 0.01 U EK), or 0.5 μg recombinant mMCP-7FLAG (activated with 0.01 U EK). After an incubated for various lengths of times, the resulting digests were subjected to SDS-PAGE. In one experiment, the N-terminal amino acid sequences; of the major fibronectin fragments in the mMCP-FLAG digest were determined.

Where a SMILES comes first, the peptide text is derived from it. The star is where a group is joined. pNA = O=[N+]([O-])c1ccc(N*)cc1

T2 sequence (Q02844 29-273): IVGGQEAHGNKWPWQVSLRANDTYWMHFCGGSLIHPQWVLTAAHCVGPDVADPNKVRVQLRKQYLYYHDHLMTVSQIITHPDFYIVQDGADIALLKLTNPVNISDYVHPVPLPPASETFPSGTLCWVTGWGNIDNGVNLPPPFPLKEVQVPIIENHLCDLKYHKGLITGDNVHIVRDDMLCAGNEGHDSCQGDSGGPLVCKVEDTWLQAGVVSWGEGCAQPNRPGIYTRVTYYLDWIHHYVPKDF

Regarding `CC[C@H](C)[C@H](NC(C)=O)C(=O)N[C@@H](CCC(=O)O)C(=O)N[C@@H](C)C(=O)N[C@@H](CCCN=C(N)N)C(=O)Nc1ccc([N+](=O)[O-])cc1` [acetyl-Ile-Glu-Ala-Arg-p-nitroanilide] (Ac-IEAR-pNA), the “cleavage of substrate by mMCP-6-FLAG” value at recombinant mMCP-6-FLAG (in the presence or absence of heparin) is “does not effectively cleave”. For the same molecule, the “cleavage of substrate by mMCP-7-FLAG compared with mMCP-6-FLAG” value at recombinant mMCP-7-FLAG was “much better than mMCP-6-FLAG”.
In the case of “mMCP-7-FLAG: EK-activated recombinant mouse mast cell protease 7 (tryptase) with FLAG peptide”, the “neutrophil chemotaxis activity in the in vivo assay” value with neutrophils (enzymatically active tryptase, peritoneal cavity) is recorded as “very little, if any”. In series [1], the “contact inhibition of treated fibroblasts” value was “do not lose their contact inhibition”, the “rate of proliferation of treated fibroblasts” value is on record as “do not increase their rate of proliferation” and the “adhesion/shape of fibroblasts on fibronectin-coated dishes” value is listed as “continued to adhere”. In addition, the “cleavage of fibronectin in vitro” value in the series with mouse fibronectin is “not”.

B1: mMCP-6-FLAG: EK-activated recombinant mouse mast cell protease 6 (tryptase) with the FLAG peptide attached to its C-terminus (protein, UniProt P21845 32-276, looked up)
Tryptase beta-2: T1 sequence (P21845 32-276)
modifications: C-terminal FLAG tag
Turning to B1, in the series with recombinant mMCP-6-FLAG (recombinant, EK-activated), the “pH of optimal enzymatic activity” value is given as ~7.4. The “persistence of induced neutrophilia” value in the series with neutrophils (kinetic experiments, peritoneal cavity) is “at least 3 days”. The “influx of neutrophils in the peritoneal cavity” value in the series on neutrophils (six to 36 h after intraperitoneal administration) is given as “pronounced influx of neutrophils”. Besides, the “adhesion/shape of fibroblasts on fibronectin-coated dishes” value in series [1] is “rapidly induced the cultured fibroblasts to round up”. For the same molecule, the “fibroblasts remaining attached to the culture dish” value in series [1] (40 min incubation) is “very few fibroblasts remained attached”. Moreover, the “degradation of fibronectin in culture supernatants” value in series [1] (SDS-PAGE/immunoblot analysis) is reported as “degraded”. In the series with mouse fibronectin (60-min incubation, tryptase bound to heparin), the “number of fibronectin fragments obtained” value is recorded as 2 fragments.

B2: mMCP-6-FLAG/heparin complex: recombinant mMCP-6-FLAG bound to heparin glycosaminoglycan (protein, UniProt P21845 32-276, looked up)
Tryptase beta-2: T1 sequence (P21845 32-276)
modifications: C-terminal FLAG tag; complexed with heparin
In the case of B2, the “cleavage of fibronectin in vitro” value in the series with mouse fibronectin is recorded as “readily cleaved”.

The values are drawn from patent US5955431A, “Mast cell protease peptide inhibitors” (Brigham and Women's Hospital, Inc., priority 1998, dated 1999).
